In one data set the target is ZIKV NS5 MTase domain WT (Zika virus, UniProt A0A142I5B9 2521-2785). Nature of the data set: fluorescence anisotropy; buffer B2; B1: 50 mM Tris-HCl pH 8.0, 150 mM NaCl, 1 mM MgCl2, 2 mM beta-mercaptoethanol, 10% glycerol, 20 C; B2: same with 100 mM NaCl, 20 C. The settings on record: protein: recombinant; tags: N-terminal His6; label: etheno-A fluorescence; single strand. A general note: Polarisation of emitted light reports the rotation of a fluorescent probe.

The next data set addresses ZIKV NS5 WT (Zika virus, UniProt A0A024B7W1 2521-3423). Nature of the data set: fluorescence titration; buffer B1; B1: 50 mM Tris-HCl pH 8.0, 150 mM NaCl, 1 mM MgCl2, 2 mM beta-mercaptoethanol, 10% glycerol, 20 C; B2: same with 100 mM NaCl, 20 C. The settings on record: protein: recombinant; tags: N-terminal His6-SUMO, cleaved; label: etheno-A fluorescence; single strand.

Broadly, the Kd is the equilibrium constant for the complex coming apart. Consider AAAAAAAAAAAAAAAAAAAA (ssRNA, all A etheno-modified (1,N6-ethenoadenosine)) [epsilonA(p-epsilonA)19 20-mer ssRNA], for which the equilibrium dissociation constant (Kd) in the data set with ZIKV NS5 MTase domain WT amounted to 910 nM; with ZIKV NS5 WT, 500 nM.

The record behind these values is publication PMC7413259, “Identification of the viral RNA promoter stem loop A (SLA)-binding site on Zika virus polymerase NS5”.
